Measurements published in a protein production outcome set (Wang et al. 2014).

Assay: label from the status in PepcDB records

Sequence: MDPSLHARPHPRRRLRCALLALACGTGAAHAATPPPYLQTQRSFEQRAADLVSRMTLEEKAAQMQNAAPAIPRLGVPAYDWWNEALHGVARAGGATVFPQAIGMAATFDLPLMHEVATAISDEARAKHHRFLRQHQHARYQGLTFWSPNINIFRDPRWGRGQETYGEDPFLTARMGVTFVQGLQGEGSDAPKNAQGERYRKLDATAKHFAVHSGPEADRHHFDARPSQRDLYETYLPAFEALVKDGKVDAVMGAYNRVYGESASASKFLLQDVLRQQWGFKGYVVSDCWAIVDVWKHHKIVATREQAAALAVTHGTELECGEEYSTLPAAVHQGLIDEAQIDTALQTLMTARMRLGMFDPPGQLPWSKIPASVNQSPAHDALARRTARESLVLLKNDGLLPLSRATLKRIAVIGPTADDTMALLGNYYGTPAAPVTVLQGIRAAAPNAQVLYARGADLVEGRNDPAATPLIEPHYLRPSANSPERGLRGEYFRNRDLSGKPALVRVDAQIGFTWDRGSPTDNLLARGEAGPSEAVPADNFSIRWSGQLVPPTTGTYHLEAAADDGVRLYLDGKPVIDRWSTSDRLHADGVDVQLQAGRSYDLRLDYFEGERDAAVRLAWRQPGAKPPLQEALDVARSADVVVFVGGLTGDVEGEEMKVSYPGFAGGDRTDLRLPKPQRELLEALQATGKPVVAVLTAGSALAVDWAQQHVPAILLAWYPGQRGGTAVADTLFGDANPGGRLPVTFYKESETLPAFDDYAMHGRTYRYFGGTPLYPFGHGLSYTQFAYSDLRLDRSTLTADGALTATVAVKNTGQRAGDEVVQLYLHPLKPQRERAGKELRGFQRLALQPGQQRELRFTINAKDALRIYDAQRKAYTVDPGAYEVQIGASSADIRARQRFTVTDK
- protein production: failed

Sequence: MPELILKPCEPVRSALKQDVAALEAPPTGGNVDKSATTSNSVTPATSAAPSPAPASEKGEDKDKDSEKEKDKTSAEKSEVKQEQEAEEDKKPGDVKQENPVEEAAGDTKPSDAEVKTEVAKTEPKEETKDPEVKEEPKTEEKEKEKVDDKKPIPPTTVIDDDDDDVMIVKEDGELEKPSASSPKDQKAVAAATSAATGATGK
- protein production: failed

Sequence: MSSKDKKLSKPTSGRTGGIRTLSDLNRRSEPDSDSDSDGPQEYFTGGEKSGMLVQDPTKEPKHDDVDEIFNQARQLGAVEGPLEHPSSSRSFTGTGRLLSGESVPTALQQPEPVIHNIIFWSNGFTVDDGPLRKLDDPENASFLDSIRKSECPKELEPVDKRAPVHVNLMRRDEKCPEKEKLKVSFQGVGRTLGGASSSTASSQSNLTDVAAVQSPLQSLVVDETLPSTSIQLRLADGTRMVAKFNNHHTVNDIRGFIEFSRPGNPNNYTLQVMGFPPKPLTDPSQTIEQAGLASSVVIQKF
- protein production: not failed

Sequence: MNHEAVQNYYGEVLQSSADLQTNACCTPDAVPAHLKPVLGKLHDEVMARYYGCGLIAPLALEGARILDLGCGAGRDVYALSALVGESGAVVGVDMTPAQLEVAQAHRAYHAEVFGHAAPNTEFHQGYIEKLDDLPLKPGSFDIIVSNCVLNLATDKAAVLRGAQRLLKPGGEMYFSDVYADRRIPEALARDEVLYGECLSGALYWNDFLSLARGAGFGDPRMVESRLLTIENPELERRVGPIRFLSATYRLFNLAGLEPDCEDYGQAVIYKGTVPHAPHEFVLDDHHVIETGKVFPVCGNSWRMLAESRFAPHFQFIGDFSTHYGIFAGCGGASPFNGLSPVAPAASGGCC
- protein production: failed

Sequence: MMGGKGGFYRHLAVEGNFGGTTQSLAVCSTIGANSVKMPTSFLYTPHRQAEFMALLQISEPGMSASPHRHRLAAGIDLGTTNSLVATVRSGSAACLPDAEGRVTLPSVVRYLENGGIEVGKTALSAQKTDPLNTVSSAKRLIGRTLADLHQNTHYLPYRFGDNQRVIELHTRQGVKTPVEVSAEILKTLKSRAEETLGGDLVGVVITVPAYFDDAQRQATKDAARLAGLNVLRLLNEPTAAAIAYGLDNASEGTFVVYDLGGGTFDVSVLQLTKGLFEVKATGGNSALGGDDFDHRLFCRLLEQNGLSQLNEQDSQLLLSLVRAAKEQLTTQTEARIQATLSDGMAIDTSISRAEFHNLTQHLVMKTLEPVTQALKDAGVGKNEVKGVIMVGGSTRMLHVQQAVATFFGQTPLNNLNPDEVVALGAAIQANVLAGNKTDGEWLLLDVTPLSLGLETYGGLAEKIIPRNSTIPTARAQDFTTFKDGQTAMTIHVVQGERELVSDCRSLAKFTLRGIPPMAAGAARIRVTFQIDADGLLSVSAQEQSTGVQAQIEVKPSYGLDDGAITRMLKDSMDNAAEDMAARARAEAVVEAESLTDAVNAALELDSDLLDAKELQQIRQGIADLQGRLKDGKAEDIRSAVAKLSRSTDNFAAKRMNRNIQRALTGQSVDNI
- protein production: failed

Sequence: MKTINVFHYDAFTNKPNMGNPAGIVLDADGLTEEEMQRIAEKVGFNETSFVLSSEVADIRMRYFTPGYEMDLCGHGTVGTIYALRERGLLEEKASLTIETKAGILPIQIGVNENGETFIKMRQTAPQFKDFAGSKEELAHSIGLEVNDLDVSLPIVYGSTGNWTVIVPVKNLDVCERMKPNNEVFPSVLKEIPNASIHPICLETYDEKVHMHGRHFSSAYAGTIEDPVTGTASGVMGAYYATYVEKDFDHEMELIVEQGQEIHKDGRVTVYVTKDVESEKLQIDIAGTAVYVKEFEVLI
- protein production: failed

Sequence: PVTQVMTPRPVVFRVDATMTINEFLDKHKDTPFSRPLVYSEQKDNIIGFVHRLELFKMQQSGSGQKQLGAVMRPIQVVLNNTALPKVFDQMMTHRLQLALVVDEYGTVLGLVTLEDIFEHLVGE
- protein production: not failed

Sequence: IRQARDLLVASMRNPPSLELLAQKTGLNVRKLNLGFRRMYRATAYGFLQEYRLEQAYKLISSGEMSVSQAAYHVGYGAAHFATVFRKRFGVSPSRLR
- protein production: failed

Sequence: MSTPDNRSVNFFSLFRRGQHYAKTWPMEKRLAPVFVENRVIRMTRYAIRFMPPVAVFTLCWQIALGGQLGPAVATALFALSLPMQGLWWLGKRSVTPLPPSILNWFYEVRGKLQEAGQALAPVEGKPDYQALADTLKRAFKQLDKTFLDDL
- protein production: not failed

Sequence: MTLTMGFIGFGKSANRYHLPYVNTRKNIKVKTIFARQINEELAAPYEEKGVSFTTNLDELLNDKEIQVVTVCTPAHTHYELAKKVILAGKSVIVEKPFCDTVEHAKELLALGREKGVVVMPYQNRRFDGDFLAVKQVVEQGFLGDIVEVESHIDYFRPGSINHEGPKEEGSFYSLGIHTMDRMISLFGRPDTVTYDIRNNEVDGAVDNYFDVGLHYGNQLKIKLKTNHVVAKDYPRFIVHGTNGSFIKYGEDQQENDLKAGIMPESAGFGEDSPMYYGIAKYRNANGDWIEKQIKTPLGDYGRFYDAAYETIVNGAPKLVKDEEAVTNIEILENGFAAPSPSVYKLEALNLNE
- protein production: failed

Sequence: MIEMLGIKIPLRKTTILPVLSFTLSSYFLTNFIFYLQYTDYTGLVEFLLIGAPFIGRAITPITYPFLMSRINIERITYLSLGNMAILDILEFFMGTDTLALILLRVATGILFGLATSAAVELATQSRSKIIMGMTMGGWALGWILSALMSFLMGKMVLITSSFSLVFFLLIKRSNIDKKLFSNSGSISIAFSWKALLIFLLGFEPAYILQLIPSLLGENNAIEETIIAYSISFIAYIILPSIGNIRISSLLTSLMIGILGFTSFITLKAWMFIPFTVLGLGLNSLLPIIIKLMKVEVTKIGPSMNLASLSGFLIPSLVSIGDIEINSAILTLISSISLGAIVYKNLKITA
- protein production: failed

Sequence: MKTSIIILTCNNLRYSRRCIESIKKYTEKEAYEIIVVDNNSNDGTRNWLSKQKAIKKIYNNVNVGFPRGCNMGIKVACGSEVLLLNNDVVVTHNWLNNLRNCLYSSYEIGAVGPISNNCSNGQKINVRYDSIEDMHRFSKKYNISNKKKWTEVKRLIGFCFLIKRNVIRKVGLFDERFTPGNFEDDDYCIRMRKIGFRLMLCKDTFVHHYGSVSFKNTQYLKLLEVNKSKLEKKWGKSYDKLVLEHHHHHH
- protein production: failed

Sequence: MNIMEIEKTNRMNALFEFYAALLTDKQMNYIELYYADDYSLAEIADEFGVSRQAVYDNIKRTEKILETYEMKLHMYSDYVVRSEIFDDMIAHYPHDEYLQEKISILTSIDNRE
- protein production: not failed
